Measured values as given in the DeepSol protein solubility set.

Experiment: soluble on expression in E. coli; label from the status in PepcDB or PDB records

Row | Sequence | soluble on expression in E. coli
1 | MNAWEVNFDGLVGLTHHYAGLSFGNEASTRHRFQVSNPRLAAKQGLLKMKALADAGFPQAVIPPHERPFIPVLRQLGFSGSDEQVLEKVARQAPHWLSSVSSASPMWVANAATIAPSADTLDGKVHLTVANLNNKFHRSLEAPVTESLLKAIFNDEEKFSVHSALPQVALLGDEGAANHNRLGGHYGEPGMQLFVYGREEGNDTRPSRYPARQTREASEAVARLNQVNPQQVIFAQQNPDVIDQGVFHNDVIAVSNRQVLFCHQQAFARQSQLLANLRARVNGFMAIEVPATQVSVSDTVSTYLFNSQLLSRDDGSMMLVLPQECREHAGVWGYLNELLAADNPISELKVFDLRESMANGGGPACLRLRVVLTEEERRAVNPAVMMNDTLFNALNDWVDRYYRDRLTAADLADPQLLREGREALDVLSQLLNLGSVYPFQREGGGNG | soluble
2 | MNDDALPVHSTDLLDFDEDFIKIDAAICEYDSVGHAPQRKGESAFQWASVETACLALLKKAKDVRVAIWYLRACIARRGLSGLADGVRLLAELMSAPVEELHPRALPDESPGETLLIHLGWLAGPQFLHQLGSSRFEDRDATLNDLIGGRAAAIVEDRDYCVRANTLVHDIKDSLSRIRESVAVVEQELNLSRSLDLLSVAASRLARTDAGRAESESVAGEKPAHAEAGFSPAPDPQQPAAGPGGALRSRQEVGVALERIVEYFRLHEPSHPAPIFLSRIQRMLGAGFEEVMAELYPEAASLVAQLNRPQSSIK | not soluble
3 | MNDSSLKKALSQNSISSAPRRPQKLGSVQSIVRNESDKNVPSPFEEITLSDDDEEAPAKKPVKCATCARDMTLWMNSRRDIHVKVCKAKQSEKEKETTRKSKTLTETIEKDDQVYEKPSSKTHLFEKPFEKPQELPKSWELSKNNVKFARIAEDDEENRKRKRPRSFAVVELAPKKCQCEVLTTLHSRFIDEFHSKSIKNQKKREEGVTEHAFQMKKMIEKISRYEQLSSDMQKVLDDNSEQLPTHIFITCSDGHRVKCQTMILKHRTSLIRLNPKSENIQVEHTKEVVKAWISFVFTANIEWNDDDKDGVRDLASKYGPVGLDLIVKNDKEEDLEKVDDVEDVVEPEAKIDSVVADPVEIEPTASHSDPIELDKSVNYFTSDDPFFGFGKAVENVEDDAEQIMEDKPHESVHSTPQKPTTNVTMDSFDEWSNQPSTNLPTTSNVITPIRNITSKAVFGSHVKILKTNDITPMPAFDSMEEAELKERMKEIGMRPKGKKAMIQILKKAYITLHPEICSGTPTIRPLVRSASLEKVSEQGGKGGRKTIKTKTLSERMIASPKKVSPKKQGVKNAISDETSKNVSNVSDDLDEDNDGDKTLNISNDEREVGKIWGDDVGDDEEDDDDMSASSTSGKHDLSALKLAFLTWLRSDQNTVLHEHILSLQPVSLEEMLIRLEKADGPLGRIGKGKLVKLLEMLKITYQLPQKTGRARGGYKRRL | not soluble
4 | MNDTLPGRISRERRGHLLLLGLDRVAKRNAFDLPMLDDLVAALGEYEADDQLRCALLFAHGEHFTAGLDLANVGETFRQGWKLPEGAVDPWGTFGGRRPSKPLVVAVQGYCYTIGIELMLAADINLCASNARFAQLEVQRGILPFGGATLRMHQVAGWGNAMRWLLTGDEFDAHEAYRLGLVQEVTAPEDLLDHAIALAERVAAQAPLGVRATLGSARQALLEGEAVAAAALPEAARRLLDSEDAKEG | not soluble
5 | MNEAEHSVEHPPVQGSHVEGGVVEHPDAKDFGSAAALPADPTWFKHAVFYEVLVRAFFDASADGSGDLRGLIDRLDYLQWLGIDCIWLPPFYDSPLRDGGYDIRDFYKVLPEFGTVDDFVALVDAAHRRGIRIITDLVMNHTSESHPWFQESRRDPDGPYGDYYVWSDTSERYTDARIIFVDTEESNWSFDPVRRQFYWHRFFSHQPDLNYDNPAVQEAMIDVIRFWLGLGIDGFRLDAVPYLFEREGTNCENLPETHAFLKRVRKVVDDEFPGRVLLAEANQWPGDVVEYFGDPNTGGDECHMAFHFPLMPRIFMAVRRESRFPISEIIAQTPPIPDMAQWGIFLRNHDELTLEMVTDEERDYMYAEYAKDPRMKANVGIRRRLAPLLDNDRNQIELFTALLLSLPGSPVLYYGDEIGMGDVIWLGDRDGVRIPMQWTPDRNAGFSTANPGRLYLPPSQDPVYGYQAVNVEAQRDTSTSLLNFTRTMLAVRRRHPAFAVGAFQELGGSNPSVLAYVRQVAGDDGDTVLCVNNLSRFPQPIELDLQQWTNYTPVELTGHVEFPRIGQVPYLLTLPGHGFYWFQLTTHEVGAPPTCGGERRL | soluble
6 | MNECAFGTKDPVYLNYHDHVWGQPLYDSKALFKLLALESQHAGLSWLTILKKKEAYEEAFYDFEPEKVAQMTAQDIDRLMTFPNIVHHRKKLEAIVNQAQGYLKIEQAYGSFSKFLWSYVNGKPKDLQYEHASDRITVDDTATQLSKDLKQYGFKFLGPVTVFSFLEAAGLYDAHLKDCPSKPKHN | soluble
7 | MNEEGGYLGAMTYQCLYSPVMEKIKQQHRDDPRASLALNKLHTALTTCEQASPSFLYDFTKVLLDDSELSVNLQESYLRMHDTSPTNDLIVSGYEQNADYKELTKRAIELRRVLSRVPEEMSDRHAFLETIKLIASSIKKLLEAINAVYRIVPLTAQPAVEKRKREFVHYSKRFSNTLKTYFKDQNANQVSVSANQLVFQTTMIVRTINEKLRRG | not soluble
8 | MNEKQADTLLNVPEIVKRAKIALNLKRDSELASYLGVARATLSNWCARNSIDFPLLLNKLRHVDYNWLLTGKGSPLHDPKSFDNGKIRGEVETIHNSKTTEAIDDRSVTLYDITAAANLRTLLSDKRQYALGKILIPSIPACDGAIFVNGDSMYPILKSGDIVGFKGINNFSNVIYGEMYIVAFHLDGDQYLTVKYVNRSEKEGYVKLVSYNPHHEPMDLPVDTIQDMAIVKFSIRKNMMM | not soluble
9 | MNEKWIVERAEREGGRLWLYVNDAPVPLARVTPKRHMLVDSDALAFAYILETDDRFLYVMVPKLWWPELKAALDAEEPVWLRCGERTLELEQFHDELSYLLENIRGNANYGEALEQAVQDVFFEQ | not soluble
10 | MNELINGNAIKMTSIEIAELVESRHSNVKVSIDRLVKRGVIKPPALQHTNIINDLGVITGKRDFYVFEGEKGKRDSIIVVAQLSPEFTARLVDRWRELEEAAVNIPKTLPEALRLAADLAEQKMQLENQLAIAAPKVEFADRVGEASGILIGNFAKVVGIGPNKLFAWMRDHKILIASGARRNVPMQEYMERGYFTVKETAVNTNHGIQISFTTKITGRGQQWLTRKLLDNGMLKVTGEAA | not soluble
11 | MNELRDPGDAVIAIVGGGASGVLVALQLLRQAVAPVQIVVIEPHAVLGEGVAYSTARPEHLLNVPAARMSALVEAPQDFVDYLRAHACCPELEDARLPQAFVGRRHYAPYLRDRLQTARVQSPATLIVHSARVQTLHADADGALLQLDDGQTLHATSVVLAVGNALRPLPLRGATGLSATQRLEAWDTEAVAALPQDAAVCIVGSGLSMADTVVTLAAQAHRGAVHVVSRHGLLPLPQAHCVAADFDPQPLLALSLRARMRSLRQHAQVAMAQGLPWQGVMERVRPLNQVLWQTLSVADQRRFLRHVVRYWDVHRHRIAAPVHAQLQAMRARGQLQLHRARLDVAFQAGACVRLSAGASAGHALQLDVQTLVNATGVEMRVQAMRNPLLQQLLGQGIAVAGSHGIGVDTAADGCLIDAEGHANPRLRVIGSLRIGSLWESLAVPELREQAAAIARDVLALLGR | not soluble
12 | MNEREAKMYELEFPAPDVASDGVDGPTLIIAMQGYADAGLAVEASADHLLSALEHRPVAVFNNDELIDYRSRRPAVTIDHNIVVDANELKLSMDVLRDSNGTPFLLLSGPEPDLRWDAFSQAVADLVRRFGVRRTICIYAAPMTVPHTRPLIVSAHGNSLDLIKHHFSIDSKVTIPGSASLHIERLLNKNNIDVAGYTAHVPHYLSASAYPLATLKLLEAITTSTNLDFPLKTLEADAQKTALQVEEQVAGSQEIESVVKILEQQYDEELEKYRERNPKALEIAEDDLPDADELGEEFERFLANIDEENGSDD | not soluble
13 | MNFDVVIIGGGLAGLTCGIALQKQGKQCAIINNGQAAIDFSSGSMDLLSCLPSGQKVHVFCEAFSELSQQAPEHPYCLLGQHQVVAKVQQFEQFMQELGLVGSHKQNHLRVTPLGGLRHTWLSPKSVPVIAENEHFPYRQIAILGIEGYHDFQPQILVDNLKQNAAFSHCDFSIGYLNIPELDYLRQNAREFRSVNIAQLLEHKLAFEDLVQEIKQAAGNAQAVFLLACFGLDDQRFFDSLKQATALALFELPTLPPSLIGIRQYRTLRDQFEKLGGLLLNGDRAVRAEFDGDRVARIFTTLHQEESINAAHFVLASGSFFSNGLVAEFERVKEPIFDLDIIGNKAFINSERVSWTDKRFAAAQPYQSAGVAINHHCQVYKNGHLIPNLYAIGNVIGGFWGIEQGCASGVSVVTALTVAEWVGGTKLEHHHHHH | not soluble
14 | MNFDWQMPRDPFADDPNDPASFIEDDEQAPPLTEAERQHIREDLALVKRFKEALEPRGINGIFFLCEDCDEDHYYDWDIMAANMRATLAGELAPVHEPSVNPNPHAYVPWDYCLGYLDGLEAPRMRFF | not soluble
15 | MNFQKVCSLDELWEGDMTEVEVAGHVIVLVRPEGGEPRAFQGICPHQDIPLAEGKFDGRVLMCRAHQWTFDANTGKGINPGGARLAEYALKVEGDDILVAVEGVEPLFANC | soluble
16 | MNFSGKYQVQSQENFEPFMKAMGLPEDLIQKGKDIKGVSEIVHEGKKVKLTITYGSKVIHNEFTLGEECELETMTGEKVKAVVKMEGDNKMVTTFKGIKSVTEFNGDTITNTMTLGDIVYKRVSKRI | soluble
17 | MNFYSLSVFIALVFSFNAADGHRCHRRGNGGFSKIFDKSTIQKIVPFFLIKIQNQNKNNIF | not soluble
18 | MNGESDCATCTISGAKLGNALGAIWTFVHTMEQGDVVLVRHGAWLSIGIIGPYRYVKHLDNDIYGFCHQRSVEWKIINENVRLYNEKVHETLRHPGVVTKSKYTVHELQLGIEW | not soluble
19 | MNGHISNHPSSFGMYPSQMNGYGSSPTFSQTDREHGSKTSAKALYEQRKNYARDSVSSVSDISQYRVEHLTTFVLDRKDAMITVDDGIRKLKLLDAKGKVWTQDMILQVDDRAVSLIDLESKNELENFPLNTIQHCQAVMHSCSYDSVLALVCKEPTQNKPDLHLFQCDEVKANLISEDIESAISDSKGGKQKRRPDALRMISNADPSIPPPPRAPAPAPPGTVTQVDVRSRVAAWSAWAADQGDFEKPRQYHEQEETPEMMAARIDRDVQILNHILDDIEFFITKLQKAAEAFSELSKRKKNKKGKRKGPGEGVLTLRAKPPPPDEFLDCFQKFKHGFNLLAKLKSHIQNPSAADLVHFLFTPLNMVVQATGGPELASSVLSPLLNKDTIDFLNYTVNGDERQLWMSLGGTWMKARAEWPKEQFIPPYVPRFRNGWEPPMLNFMGATMEQDLYQLAESVANVAEHQRKQEIKRLSTEHSSVSEYHPADGYAFSSNIYTRGSHLDQGEAAVAFKPTSNRHIDRNYEPLKTQPKKYAKSKYDFVARNNSELSVLKDDILEILDDRKQWWKVRNASGDSGFVPNNILDIVRPPESGLGRADPPYTHTIQKQRMEYGPRPADTPPAPSPPPTPAPVPVPLPPSTPAPVPVSKVPANITRQNSSSSDSGGSIVRDSQRHKQLPVDRRKSQMEEVQDELIHRLTIGRSAAQKKFHVPRQNVPVINITYDSTPEDVKTWLQSKGFNPVTVNSLGVLNGAQLFSLNKDELRTVCPEGARVYSQITVQKAALEDSSGSSELQEIMRRRQEKISAAASDSGVESFDEGSSH | soluble
